T1: monkey CD22 on HEK293T-monkey CD22 cells (monkey)
T1 construct: full-length entry expressed on stably transfected HEK293T cells
T1 chain: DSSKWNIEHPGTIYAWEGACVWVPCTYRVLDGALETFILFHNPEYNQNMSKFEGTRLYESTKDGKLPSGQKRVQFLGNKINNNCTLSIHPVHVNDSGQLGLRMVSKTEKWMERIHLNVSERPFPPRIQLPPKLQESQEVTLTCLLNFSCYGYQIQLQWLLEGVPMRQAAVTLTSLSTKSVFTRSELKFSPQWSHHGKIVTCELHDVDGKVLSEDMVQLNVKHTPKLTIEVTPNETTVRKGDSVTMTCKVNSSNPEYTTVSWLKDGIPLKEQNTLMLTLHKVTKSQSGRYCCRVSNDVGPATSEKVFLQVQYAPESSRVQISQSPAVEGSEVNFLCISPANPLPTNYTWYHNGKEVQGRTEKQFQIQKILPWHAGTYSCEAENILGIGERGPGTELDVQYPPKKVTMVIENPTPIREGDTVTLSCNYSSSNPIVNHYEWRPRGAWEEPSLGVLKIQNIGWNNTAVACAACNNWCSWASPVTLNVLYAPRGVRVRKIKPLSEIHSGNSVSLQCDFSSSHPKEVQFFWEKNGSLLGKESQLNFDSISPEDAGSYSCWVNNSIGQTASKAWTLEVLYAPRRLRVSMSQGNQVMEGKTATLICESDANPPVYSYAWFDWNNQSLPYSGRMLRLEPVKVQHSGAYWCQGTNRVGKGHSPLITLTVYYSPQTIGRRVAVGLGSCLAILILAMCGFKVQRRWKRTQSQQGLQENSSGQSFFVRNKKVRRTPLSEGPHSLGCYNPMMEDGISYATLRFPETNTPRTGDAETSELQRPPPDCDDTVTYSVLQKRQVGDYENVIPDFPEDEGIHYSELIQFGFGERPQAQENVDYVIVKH

T2: monkey CD22 (full length, on HEK293T cells) (monkey)
T2 construct: NCBI XP_014979161.2; also called HEK293T-monkey CD22; HEK293T cells overexpressing monkey CD22
T2 chain: T1 chain

B1: F2.121.9 (antibody, human IgG1, lambda, V domains shown)
VH: EVQLVESGGGLVKPGGSLKLSCAASGFTFSDYVMSWIRQTPEKRLEWVATISDAGSYTFYPDNLKGRFTISRDNAKNNLYLQMNHLTSEDTAFYYCAIIYFGNYGGYWGQGTLVTVSV
VL: QAVVTQESALTTSPGGTVVLTCRSNTGAVTTSNYANWVQEKPDHLFTGLIGGTSNRAPGVPVRFSGSLIGDKAALTITGAQTEDDAMYFCALWYSTHWVFGGGTKLTVLG
notes: human-murine chimeric IgG1 lambda
B2: F2.205.9 (antibody, human IgG1, lambda, V domains shown)
VH: QVTLKESGPGILQPSQTLSLTCSFSGFSLSTSGMGVGWIRQPSGKGLEWLAHIWWDDDEYYNPALKSRLTISKDTSKNQVFLKIANVDTADTATYYCARISIPYGYYDWFFDVWGTGTTVTVSA
VL: QAVVTQESALTTSPGETVTLTCRSSTGAVTTRNYANWVQEKPDHLFTGLIGGTNNRAPGVPARFSGSLIGDKAALTITGAQTEDEAIYFCALWYSNHFIFGSGTKVTVLG
notes: human-murine chimeric IgG1 lambda; VL name legible
B3: F2.151.13 (antibody, human IgG1, lambda, V domains shown)
VH: QVHLQQPGTELMKPGASVKLSCKATGYTFRDYWLEWVKQRPGHGLEWIGEILPGSGNAYYNEKFKGKATFTADTSSNTAYMQLSSLTTEDSAIYYCARVYSNWYFDAWGKGTTVTVSS
VL: B2 VL with R32S, R56Q, T78S, Y94F, F98W, I99V, S102G, V106L
notes: as for B1
B4: F2.180.16 (antibody, human IgG1, lambda, V domains shown)
VH: EVKLVESGGGLVLPGGSLKISCAASGFTFSDYYMYWIRQTPDKRLEWVAYISNTGYSTFYPDSVKGRFTVSRDNAKNTLYLQMSRLQSEDTAMYYCARHGILYAMDYWGQGTSVTVSS
VL: QPVLTQSSSASFSLGASAKLTCTLSSQYSTYTIGWYQQQPLKPPKYVMELKHDGSRHTGDGIPDRFSGSSSGADRYLSISNIQPEDEATYICGVGDTIKEQFMYVFGGGTKVTVLG
notes: as for B1
B5: F2.70.2 (antibody, human IgG1, lambda, V domains shown)
VH: EVQLVESGGGLVKPGGSLKLSCAASGFTFSDYGMNWFRQAPEKGLEWVAYISRGSHTIYYADTVKGRFTISRDNAKNTLFLQMTSLRSNDTAMYYCVRMAGYYAMDYWGQGTSVTVSS
VL: B4 VL with P2L, Y28H, T30S, T32I, G34E, H52K, R56H, H57S, T89I, M103V
notes: as for B1
B6: F2.173.9 (antibody, human IgG1, lambda, V domains shown)
VH: EVQLVESGGDLVKPGESLKLSCEASGFTFSNYAMSWVRQTPDRRLEWVATISSIGSFTYYSDSVKGRFTISRDNVKSTLHLQMNNLKSGDTAIYFCARLGVYFDSWGQGTTLTVSS
VL: QLVLTQSSSASFSLGASAKLTCTLSSQHSTYTIEWYQQQPHKPPKFVMEIKKDGSHYTGDGIPDRFSGSSSGADRYLSISNIQPEDETIYICGVSDMIKDQFVYVFGGGTKVTVLG
notes: as for B1
B7: F2.104.10 (antibody, human IgG1, lambda, V domains shown)
VH: B5 VH with L11F, K76E, V114L
VL: QLVLTQSSSASFSLGASAKLTCTLSSQHSSYIIEWYQQQPLKPPKYVMEVKKDGSHSTGDGIPDRFSGSSSGADRYLSISNIQSEDEAIYICGVGDTIKEQFVYVFGGGTKVTVLG
notes: as for B1
B8: F2.343.16 (antibody, human IgG1, lambda, V domains shown)
VH: QVQLKQSGPGLVQPSQSLSITCTVSGFSLTGYGVQWVRQSPGKGLEWLGVIWGGGGTDYNAAFISRLNIIKDNSKSQVFFKMNSLQADDTAIYYCARYSKYGHFDVWGTGTAVTVSS
VL: QAVVTQESALTTSPGETVTLTCRSSTGAVTTSNYANWVQEKPDHLFTGLIGGTYNRVPGVPARFSGSLIGDKAALTITGAQTEDEAIYFCALWYSNHFWVFGGGTKLTVLG
notes: as for B2
B9: HA22-hIgG1 (antibody, V domains shown)
VH: EVQLVESGGGLVKPGGSLKLSCAASGFAFSIYDMSWVRQTPEKCLEWVAYISSGGGTTYYPDTVKGRFTISRDNAKNTLYLQMSSLKSEDTAMYYCARHSGYGTHWGVLFAYWGQGTLVTVSA
VL: DIQMTQTTSSLSASLGDRVTISCRASQDISNYLNWYQQKPDGTVKLLIYYTSILHSGVPSRFSGSGSGTDYSLTISNLEQEDFATYFCQQGNTLPWTFGCGTKLEIKR
B10: F2.55.1 (antibody, human IgG1, lambda, V domains shown)
VH: QVTLKESGPGILQPSQTLSLTCSFSGFSLSTFPLGVGWIRQPSGKGLEWLAHVWWNDDDYYNPALKSRLTISKDTSNTRVFLSVASVDTAETATYYCARLNWDRWYFDVWGTGTTVTVSS
VL: QLVLTQSSSASFSLGASAKLTCTLSSQHSAYTVEWYQQQPLKPPKYVMELKKDGSHSTGDGIPDRFSGSSSGADRYLSISNIQPEDEAIYICGVGDTVKEQFVFGGGTKVTVLG
notes: as for B2
B11: F2.70.2 (antibody, human IgG1, lambda, V domains shown)
VH: B5 VH
VL: B7 VL with V50L, S84P
notes: Human-murine chimeric IgG1, lambda
B12: F2.104.10 (antibody, human IgG1, lambda, V domains shown)
VH: B5 VH with L11F, K76E, V114L
VL: B7 VL
notes: as for B11
B13: F1.257.3 (antibody, human IgG1, kappa, V domains shown)
VH: QVQLQQSGPELARPGASVKLSCKASGYTFTSYGISWVKQRTGQDLEWIGEIYPKLGTTYYNEKFKDKATLTTDRSSSTAYMALRSLTSEDSAVYFCACPHYYATRGGDYWGQGTTLTVSS
VL: EIVLTQSPATLSVTPGDSVTFSCRASQSISNHLHWYQQKSHESPRLLIRYASQSISGIPSRFSGSGSGTDFTLSLSSVETEDFGVYFCQQSHSWPYTFGGGTKLEIAR
notes: Human-murine chimeric IgG1, kappa
B14: F1.245.2 (antibody, human IgG1, kappa, V domains shown)
VH: EVQLQQSGAELVKPGASVKLSCTGSGFNIKDYYIHWVKQRTEQGLEWMGRIDPEDGETEYAPKFQDEATITSDTSSNTAYLQLSSLTYEDTAVYYCAREAAGYFYRGSSYGYFDVWGTGTTVTVSS
VL: DFQMTQTTSFLSASLGDRVTISCSASQDISNYLNWYQQKPDGTVKLLIYYTSSLHSGVPSRFSGSGSGTDYSLTISNLEPEDIATYYCQQYSMLPYTFGGGTKLEMER
notes: as for B13

Where a chain is given by its changes, count along the chain named.

One test has as its target T1, monkey CD22 on HEK293T-monkey CD22 cells. As to the kind of experiment: FACS, HEK293T-monkey CD22 cells. The method, then: (§1) For suspension cell Raji, the medium supernatant was directly centrifuged and discarded, and the cell pellet was washed 2 times with PBS. After counting the cells in the previous step, the cell pellet was resuspended with [PBS+2% (w/w) BSA] blocking solution to 2×10⁶ cells/ml, and added to a 96-well FACS reaction plate at 50 μl/well, and then the chimeric antibody test sample was added at 50 μl/well, and incubated on ice for 2 hours. The mixture was centrifuged and washed 3 times with PBS buffer, Alexa Flour 488-labeled secondary antibody (purchased from Invitrogen, catalog number: A-11013) was added at 50 μl/well, and incubated on ice for 1 hour. The obtained mixture was centrifuged and washed 5 times with PBS, and FACS (FACS Canto™, purchased from BD Company) was used for detection and result analysis. Data analysis was performed by software (CellQuest) to obtain the mean fluorescence density (MFI)of the cells. And then software (GraphPad Prism8) was used for analysis, data fitting, and EC50 value calculation. […] The same method was used to detect the binding of the chimeric antibodies to endogenous CD22-negative cell MoLT4 cells (purchased from ATCC, CRL-1582) and CHO-K1 cells.
(§2) HEK293T-monkey CD22 cells were subjected to FACS detection and data analysis according to the method in Example 5.2.
Take B1: the midpoint of the response, the EC50, lay at 0.97 nM and the “Maximum mean fluorescence intensity” value was determined as 19900 MFI.
Take B2: the EC50 was 0.4 nM and the “Maximum mean fluorescence intensity” value was 25400 MFI.
The matching figures for B3: 1.26 nM and 30500 MFI.
In the case of B4, the “Maximum mean fluorescence intensity” value was determined as 69 MFI.
On to B5, for which the “Maximum mean fluorescence intensity” value amounted to 409 MFI.
Take B6: the EC50 stood at 2.1 nM and the “Maximum mean fluorescence intensity” value was determined as 22700 MFI.
Regarding B7, the “Maximum mean fluorescence intensity” value stood at 251 MFI.
The same measure, in the same setting: the figure for B8 is 83 MFI.
In the case of B9, it took 1.59 nM to reach a half-maximal effect (EC50) and the “Maximum mean fluorescence intensity” value is 31200 MFI.
As for B10, the EC50 stood at 34.7 nM and the “Maximum mean fluorescence intensity” value stood at 5760 MFI.

The target in another test is T2, monkey CD22 (full length, on HEK293T …). Description: FACS, HEK293T-monkey CD22 cells (293T as parent cells).
From the text: as §1, with “The required cells were scale-up cultured in a T-75 cell culture flask to the logarithmic growth phase. For the adherent cell CHO-K1, the medium was aspirated, the cells were washed 2 times with PBS buffer, and then digested with trypsin. After the digestion was terminated, the cells were washed 2 times with PBS buffer. For” for “For”
as §2
Regarding B11, the binding result is “no binding (tested: 10 nM)”.
For the molecule B12, the binding result was “no binding (tested: 10 nM)”.
For B13, the binding result is “no binding (tested: 10 nM)”.
With B14, the binding result is reported as “no binding (tested: 10 nM)”.

The values are drawn from patent US20240084003A1 (SIMCERE ZAIMING PHARMACEUTICAL, published 2024).
